# Assay results: paper PMC4072508, “Genome-Wide Prediction and Validation of Peptides That Bind Human Prosurvival Bcl-2 Proteins” (PLoS Computational Biology, 2014)
# T1: Bfl-1, Q16548
# T1 chain: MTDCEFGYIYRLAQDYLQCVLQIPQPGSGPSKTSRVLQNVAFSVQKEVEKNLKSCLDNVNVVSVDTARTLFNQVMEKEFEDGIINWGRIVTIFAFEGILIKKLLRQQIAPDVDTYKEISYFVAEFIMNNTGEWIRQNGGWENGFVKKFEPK
# T2: Bcl-w, Q92843
# T2 chain: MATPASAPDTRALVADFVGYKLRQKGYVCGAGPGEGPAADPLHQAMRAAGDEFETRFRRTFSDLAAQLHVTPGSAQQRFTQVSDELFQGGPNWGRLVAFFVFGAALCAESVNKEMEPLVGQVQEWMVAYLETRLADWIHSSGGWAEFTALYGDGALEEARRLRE
# T3: Mcl-1, Q07820
# T3 chain: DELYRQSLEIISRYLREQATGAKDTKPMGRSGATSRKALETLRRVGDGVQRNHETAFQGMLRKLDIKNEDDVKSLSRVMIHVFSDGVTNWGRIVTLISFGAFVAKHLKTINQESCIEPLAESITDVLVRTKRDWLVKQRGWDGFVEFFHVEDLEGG
# Biological target: Bcl-2, P10415
# Experiment: peptide SPOT array, c-Myc-tagged receptor at 1 uM or 100 nM, anti-c-Myc-Cy3
# Chain of Bcl-2, P10415 (P10415 1-217): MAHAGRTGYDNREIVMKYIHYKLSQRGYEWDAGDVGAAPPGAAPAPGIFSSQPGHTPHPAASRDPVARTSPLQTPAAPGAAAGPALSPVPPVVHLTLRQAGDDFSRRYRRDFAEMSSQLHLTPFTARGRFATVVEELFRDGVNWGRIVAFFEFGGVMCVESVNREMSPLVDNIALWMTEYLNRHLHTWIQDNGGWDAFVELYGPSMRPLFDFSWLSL
row,Binder,SPOT signal as a fraction of Bim BH3's signal on the same receptor and array
1,KGKIDVCIVLLQHGADPNIRNTDGKS,0.02
2,MEGSDALALRLACIGDEMDVSLRAPR [BIK],0.72
3,EGTKIVLGKQLIESADEVRRKSLVLK [TAF1],0.07
4,HVDGLHSSEELRNLGWDFSQEKPSTT [SETD2],0.01
5,VKVLGKAVHSLSRIGDELYLEPLEDG [RAD9A],0.01
6,PFDCRDYAVVLRKYADKIYNISMKHP [FOLH1B],0.36
7,VKVFGKAVQALSRISDEFWLDPSKKG [RAD9B],0.1
8,EQILAKIVELLKYSGDQLERKLKKDK [BCL2L14],0.49
9,SGEFARICRDLSHIGDAVVISCAKDG [PCNA],0.01
10,HPKRKQVTELLLRKGANVNEKNKDFM,0.13
11,AGLDMNISQFLKSLGLEHLRDIFETE,0.01
12,YTCRGHIPGFLQTTADEFCFYYARKD [HHIP],0.02
13,FQQLRHRIQDLEQLAKEQDKESEKQL [BNIP1],0.02
14,QLRLSDAGQYLCQAGDDSNSNKKNAD [PIGR],0.01
15,AYRGRGIAKHLAKAALDFVVEEDLKA [C17orf103],0.05

# Biological target: T1, Bfl-1, Q16548
# Experiment: as above
row,Binder,SPOT signal as a fraction of Bim BH3's signal on the same receptor and array
1,KGKIDVCIVLLQHGADPNIRNTDGKS,0.1
2,GYPFNDVCQWFIDRLDLIFVVFDPTK [SRL],0.05
3,SMRRNAMGVGLVFEADLFTTRHISHW [DNAH10],0.3
4,MEGSDALALRLACIGDEMDVSLRAPR [BIK],0.43
5,EGTKIVLGKQLIESADEVRRKSLVLK [TAF1],0.34
6,WLKGDILGEKDVNLADCLCNEDLESR [RNF160],0.05
7,HVDGLHSSEELRNLGWDFSQEKPSTT [SETD2],0.02
8,NGGLLEFHKSDQEIGDKNDHWFDIDP [DZIP3],0.04
9,TSRINEVQVNDSLLGDDLLLPAQSTL [SPHKAP],0.03
10,ISSLDLLPYGLRYIAKVLKNSIHEKF [IQGAP2],0.64
11,VKVLGKAVHSLSRIGDELYLEPLEDG [RAD9A],0.03
12,MEMYQPSAVVDQCGADSLSGDRLGCF [HDAC2],0.03
13,PFDCRDYAVVLRKYADKIYNISMKHP [FOLH1B],0.63
14,FVGYNSTGAELRHWLDMLANPRRPIA [SYT1],0.21
15,LFWTPLLVVLLAGLGDTEAQQTTLHP [SGCA],0.04
16,VKVFGKAVQALSRISDEFWLDPSKKG [RAD9B],0.23
17,EQILAKIVELLKYSGDQLERKLKKDK [BCL2L14],0.75
18,SGEFARICRDLSHIGDAVVISCAKDG [PCNA],0.03
19,HPKRKQVTELLLRKGANVNEKNKDFM,0.48
20,AGLDMNISQFLKSLGLEHLRDIFETE,0.03
21,AELEVECATQDRRFGDKLNFRQKLLN [PMAIP1],0.07
22,YTCRGHIPGFLQTTADEFCFYYARKD [HHIP],0.06
23,FQQLRHRIQDLEQLAKEQDKESEKQL [BNIP1],0.08
24,CGEWTRRSLHLRVLGRQLILPTDKGV [FAM149A],0.7
25,APEEDFFSIHDRIVGDWTEGLFNACG [CYBB],0.03
26,QLRLSDAGQYLCQAGDDSNSNKKNAD [PIGR],0.03
27,AYRGRGIAKHLAKAALDFVVEEDLKA [C17orf103],0.11
28,SQGKHGFTMADNAFGDMTNEEFRQMM [CTSL2],0.05
29,TRRSMVFARHLREVLDEFRSRHLNST [POFUT2],0.61

# Biological target: Bcl-xL, Q07817
# Experiment: as above
# Chain of Bcl-xL, Q07817 (Q07817 1-209): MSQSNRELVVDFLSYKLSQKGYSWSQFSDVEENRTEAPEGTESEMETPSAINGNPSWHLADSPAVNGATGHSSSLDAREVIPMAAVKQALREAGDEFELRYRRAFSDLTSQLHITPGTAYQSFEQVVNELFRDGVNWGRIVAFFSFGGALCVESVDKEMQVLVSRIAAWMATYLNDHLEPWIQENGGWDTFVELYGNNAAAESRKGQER
row,Binder,SPOT signal as a fraction of Bim BH3's signal on the same receptor and array
1,GYPFNDVCQWFIDRLDLIFVVFDPTK [SRL],0.06
2,SMRRNAMGVGLVFEADLFTTRHISHW [DNAH10],0.24
3,WLKGDILGEKDVNLADCLCNEDLESR [RNF160],0.07
4,NGGLLEFHKSDQEIGDKNDHWFDIDP [DZIP3],0.12
5,TSRINEVQVNDSLLGDDLLLPAQSTL [SPHKAP],0.05
6,ISSLDLLPYGLRYIAKVLKNSIHEKF [IQGAP2],0.8
7,MEMYQPSAVVDQCGADSLSGDRLGCF [HDAC2],0.06
8,FVGYNSTGAELRHWLDMLANPRRPIA [SYT1],0.32
9,LFWTPLLVVLLAGLGDTEAQQTTLHP [SGCA],0.06
10,AELEVECATQDRRFGDKLNFRQKLLN [PMAIP1],0.06
11,YTCRGHIPGFLQTTADEFCFYYARKD [HHIP],0.07
12,CGEWTRRSLHLRVLGRQLILPTDKGV [FAM149A],1.07
13,APEEDFFSIHDRIVGDWTEGLFNACG [CYBB],0.05
14,QLRLSDAGQYLCQAGDDSNSNKKNAD [PIGR],0.03
15,AYRGRGIAKHLAKAALDFVVEEDLKA [C17orf103],0.36
16,SQGKHGFTMADNAFGDMTNEEFRQMM [CTSL2],0.06
17,TRRSMVFARHLREVLDEFRSRHLNST [POFUT2],0.74

# Biological target: T2, Bcl-w, Q92843
# Experiment: as above
row,Binder,SPOT signal as a fraction of Bim BH3's signal on the same receptor and array
1,KGKIDVCIVLLQHGADPNIRNTDGKS,0.03
2,MEGSDALALRLACIGDEMDVSLRAPR [BIK],0.74
3,EGTKIVLGKQLIESADEVRRKSLVLK [TAF1],0.48
4,HVDGLHSSEELRNLGWDFSQEKPSTT [SETD2],0.02
5,VKVLGKAVHSLSRIGDELYLEPLEDG [RAD9A],0.02
6,PFDCRDYAVVLRKYADKIYNISMKHP [FOLH1B],1.25
7,VKVFGKAVQALSRISDEFWLDPSKKG [RAD9B],0.89
8,EQILAKIVELLKYSGDQLERKLKKDK [BCL2L14],0.74
9,SGEFARICRDLSHIGDAVVISCAKDG [PCNA],0.03
10,HPKRKQVTELLLRKGANVNEKNKDFM,0.5
11,AGLDMNISQFLKSLGLEHLRDIFETE,0.02
12,YTCRGHIPGFLQTTADEFCFYYARKD [HHIP],0.1
13,FQQLRHRIQDLEQLAKEQDKESEKQL [BNIP1],0.04
14,QLRLSDAGQYLCQAGDDSNSNKKNAD [PIGR],0.02
15,AYRGRGIAKHLAKAALDFVVEEDLKA [C17orf103],0.29

# Biological target: T3, Mcl-1, Q07820
# Experiment: as above
row,Binder,SPOT signal as a fraction of Bim BH3's signal on the same receptor and array
1,GYPFNDVCQWFIDRLDLIFVVFDPTK [SRL],0.05
2,SMRRNAMGVGLVFEADLFTTRHISHW [DNAH10],0.32
3,WLKGDILGEKDVNLADCLCNEDLESR [RNF160],0.04
4,NGGLLEFHKSDQEIGDKNDHWFDIDP [DZIP3],0.04
5,TSRINEVQVNDSLLGDDLLLPAQSTL [SPHKAP],0.03
6,ISSLDLLPYGLRYIAKVLKNSIHEKF [IQGAP2],0.57
7,MEMYQPSAVVDQCGADSLSGDRLGCF [HDAC2],0.04
8,FVGYNSTGAELRHWLDMLANPRRPIA [SYT1],0.21
9,LFWTPLLVVLLAGLGDTEAQQTTLHP [SGCA],0.04
10,AELEVECATQDRRFGDKLNFRQKLLN [PMAIP1],0.05
11,YTCRGHIPGFLQTTADEFCFYYARKD [HHIP],0.04
12,CGEWTRRSLHLRVLGRQLILPTDKGV [FAM149A],0.76
13,APEEDFFSIHDRIVGDWTEGLFNACG [CYBB],0.03
14,QLRLSDAGQYLCQAGDDSNSNKKNAD [PIGR],0.02
15,AYRGRGIAKHLAKAALDFVVEEDLKA [C17orf103],0.07
16,SQGKHGFTMADNAFGDMTNEEFRQMM [CTSL2],0.06
17,TRRSMVFARHLREVLDEFRSRHLNST [POFUT2],0.9
